Measured values: US7972815B2, “Method of producing sugar chain using human G4 polypeptide” (Kyowa Hakko Kirin Co., Ltd., priority 1999, dated 2011)

How the values were obtained:
[1] = β1,3-N-acetylglucosaminyl transferase activity in cell extract of stable transformants (Example 8); type: biochemical, human; conditions: cell extract of Namalwa KJM-1 transformed by expression plasmid; 50 μM pyridylaminated LNnT; 37° C., 16 hours; control plasmid cells 1.8%
Method: The β1,3-N-acetylglucosaminyl transferase activity was examined by using a cell extract of stable transformants which were transformed by a plasmid capable of expressing G3, G4, G4-2 or G7 polypeptide obtained in Example 7.
The transformed cells (about 2×10^7) were transferred into a microtube (1.5 ml: manufactured by Eppendorf) and centrifuged (550×g for 7 minutes) to collect the cells. The cells were washed with 0.9 ml of PBS, the washed cells were suspended in a solution […] composed of 20 mmol/l HEPES (pH 7.2) and 1% Triton X-100 and then the cells were disrupted by a sonicator (Bioruptor; manufactured by Cosmo Bio). After standing at 4° C. for 1 hour, a supernatant was obtained by centrifugation (550×g for 7 minutes). The supernatant was used as an enzyme sample. The β1,3-N-acetylglucosaminyl transferase activity was measured by using this enzyme sample.
Preparation of a pyridylaminated sugar chain substrates and activity measurement were carried out in accordance with known methods [Japanese Published Unexamined Patent Application No. 181757/94, Japanese Published Unexamined Patent Application No. 823021/94, J. Biol. Chem., 269, 14730 (1994), J. Biol. Chem., 267, 2994 (1992)].
(§1) Specifically, the reaction was carried out at 37° C. for 16 hours in 30 μl of an assay solution [200 mmol/l of MOPS (pH 7.5), 50 mmol/l of UDP-GlcNAc (SIGMA), 20 mmol/l of MnCl2, 0.3% Triton X-100, 50 μM of a pyridylaminated sugar chain substrate and 10 μl of the above cell lysate], and then products were detected by a high performance liquid chromatography (HPLC).
As a substrate, lacto-N-neotetraose (Galβ1-4GlcNAcβ1-3Galβ1-4Glc; hereinafter referred to as “LNnT”) fluorescence-labeled with aminopyridine was used. […]
(§2) Products were detected by using a fluorescence spectrum photometer FP-920 (JASCO Corporation) (excitation wavelength 320 nm, radiation wavelength 400 nm). […]
(§3) The amount of products was measured by using pyridylaminated lactose as a standard and comparing their fluorescence intensity.

[2] = β1,3-N-acetylglucosaminyl transferase activity of secreted FLAG peptide-fused polypeptides (method of Example 8); type: biochemical, human
Method: as §1
As a substrate, lacto-N-neotetraose (Galβ1-4GlcNAcβ1-3Galβ1-4Glc; hereinafter referred to as “LNnT”) fluorescence-labeled with aminopyridine was used.
After carrying out the reaction by using the assay solution with or without UDP-GlcNAc (sugar donor), HPLC was carried out and peaks appeared only in the assay solution containing UDP-GlcNAc were defined as products.
The assay solution after completion of the reaction was treated at 100° C. for 5 minutes and then centrifuged at 10,000×g for 5 minutes, and a portion (5 μl) of the thus obtained supernatant was applied to HPLC.
The HPLC was carried out by using TSK-gel ODS-80Ts column (4.6×300 mm; Tosoh); 0.02 M ammonium acetate buffer (pH 4.0) was used as an eluate at elution temperature 50° C. and flow rate 0.5 ml/min.
as §2, §3
A β1,3-N-acetylglucosaminyl transferase activity of FLAG peptide-fused G4 polypeptide expressed as a secreted form in Namalwa KJM-1 cell was measured by using 15 μl of the eluate prepared in the above (4). […] As a result, a β1,3-N-acetylglucosaminyl transferase activity was detected when the eluate derived from the culture supernatant of pAMoF2-G4-introduced Namalwa KJM-1 cell was used. […] On the other hand, the activity was not detected when the eluate derived from the culture supernatant of Namalwa KJM-1 cell transformed by the vector pAMoF2 was used.
A β1,3-N-acetylglucosaminyl transferase activity of FLAG peptide-fused G4 polypeptide produced as a secreted form in the insect cell was measured using 15 μl of the eluate prepared in the above (3). […] As a result, a β1,3-N-acetylglucosaminyl transferase activity was detected when the eluate derived from the culture supernatant of the insect cell transformed by pVL1393-F2G4 was used.
A β1,3-N-acetylglucosaminyl transferase activity was also detected when the resin before elution was used. […]
A β1,3-N-acetylglucosaminyl transferase activity of FLAG peptide-fused G3 polypeptide was measured by using 15 μl of the purified sample prepared in the above (3). […] As a result, a β1,3-N-acetylglucosaminyl transferase activity was detected. […]

[3] = 15 μl eluate/purified sample from insect cell (Sf21) culture supernatant

B1: G3: polypeptide containing 397 amino acids, SEQ ID NO:1; novel β1,3-N-acetylglucosaminyl transferase (protein, listed as Homo sapiens)
chain: MSVGRRRIKLLGILMMANVFIYFIMEVSKSSSQEKNGKGEVIIPKEKFWKISTPPEAYWNREQEKLNRQYNPILSMLTNQTGEAGRLSNISHLNYCEPDLRVTSVVTGFNNLPDRFKDFLLYLRCRNYSLLIDQPDKCAKKPFLLLAIKSLTPHFARRQAIRESWGQESNAGNQTVVRVFLLGQTPPEDNHPDLSDMLKFESEKHQDILMWNYRDTFFNLSLKEVLFLRWVSTSCPDTEFVFKGDDDVFVNTHHILNYLNSLSKTKAKDLFIGDVIHNAGPHRDKKLKYYIPEVVYSGLYPPYAGGGGFLYSGHLALRLYHITDQVHLYPIDDVYTGMCLQKLGLVPEKHKGFRTFDIEEKNKNNICSYVDLMLVHSRKPQEMIDIWSQLQSAHLKC
ratio of a substrate (LNnT) converted into a product (GlcNAcβ1-3Galβ1-4GlcNAcβ1-3Galβ1-4Glc) [1]: 2.7%

B2: G4: polypeptide composed of 372 amino acids, SEQ ID NO:2; novel β1,3-N-acetylglucosaminyl transferase (protein, listed as Homo sapiens)
chain: MKYLRHRRPNATLILAIGAFTLLLFSLLVSPPTCKVQEQPPAIPEALAWPTPPTRPAPAPCHANTSMVTHPDFATQPQHVQNFLLYRHCRHFPLLQDVPPSKCAQPVFLLLVIKSSPSNYVRRELLRRTWGRERKVRGLQLRLLFLVGTASNPHEARKVNRLLELEAQTHGDILQWDFHDSFFNLTLKQVLFLQWQETRCANASFVLNGDDDVFAHTDNMVFYLQDHDPGRHLFVGQLIQNVGPIRAFWSKYYVPEVVTQNERYPPYCGGGGFLLSRFTAAALRRAAHVLDIFPIDDVFLGMCLELEGLKPASHSGIRTSGVRAPSQHLSSFDPCFYRDLLLVHRFLPYEMLLMWDALNQPNLTCGNQTQIY
ratio of a substrate (LNnT) converted into a product (GlcNAcβ1-3Galβ1-4GlcNAcβ1-3Galβ1-4Glc) [1]: 2.8%

B3: G4-2: polypeptide containing 372 amino acids, SEQ ID NO:3; 328th amino acid Arg instead of His (protein, listed as Homo sapiens)
chain: MKYLRHRRPNATLILAIGAFTLLLFSLLVSPPTCKVQEQPPAIPEALAWPTPPTRPAPAPCHANTSMVTHPDFATQPQHVQNFLLYRHCRHFPLLQDVPPSKCAQPVFLLLVIKSSPSNYVRRELLRRTWGRERKVRGLQLRLLFLVGTASNPHEARKVNRLLELEAQTHGDILQWDFHDSFFNLTLKQVLFLQWQETRCANASFVLNGDDDVFAHTDNMVFYLQDHDPGRHLFVGQLIQNVGPIRAFWSKYYVPEVVTQNERYPPYCGGGGFLLSRFTAAALRRAAHVLDIFPIDDVFLGMCLELEGLKPASHSGIRTSGVRAPSQRLSSFDPCFYRDLLLVHRFLPYEMLLMWDALNQPNLTCGNQTQIY
ratio of a substrate (LNnT) converted into a product (GlcNAcβ1-3Galβ1-4GlcNAcβ1-3Galβ1-4Glc) [1]: 2.8%

B4: FLAG peptide-fused G3 polypeptide: secreted G3, 31st serine to 397th cysteine of SEQ ID NO:1, with immunoglobulin signal sequence and FLAG peptide (protein, listed as Homo sapiens)
chain: SSQEKNGKGEVIIPKEKFWKISTPPEAYWNREQEKLNRQYNPILSMLTNQTGEAGRLSNISHLNYCEPDLRVTSVVTGFNNLPDRFKDFLLYLRCRNYSLLIDQPDKCAKKPFLLLAIKSLTPHFARRQAIRESWGQESNAGNQTVVRVFLLGQTPPEDNHPDLSDMLKFESEKHQDILMWNYRDTFFNLSLKEVLFLRWVSTSCPDTEFVFKGDDDVFVNTHHILNYLNSLSKTKAKDLFIGDVIHNAGPHRDKKLKYYIPEVVYSGLYPPYAGGGGFLYSGHLALRLYHITDQVHLYPIDDVYTGMCLQKLGLVPEKHKGFRTFDIEEKNKNNICSYVDLMLVHSRKPQEMIDIWSQLQSAHLKC
modifications: Ig signal sequence and FLAG peptide
ratio of the substrate converted into the product [2, 3]: 100%

B5: FLAG peptide-fused G4 polypeptide: secreted G4, 38th glutamic acid to 372nd tyrosine of SEQ ID NO:2, with immunoglobulin signal sequence and FLAG peptide (protein, listed as Homo sapiens)
chain: EQPPAIPEALAWPTPPTRPAPAPCHANTSMVTHPDFATQPQHVQNFLLYRHCRHFPLLQDVPPSKCAQPVFLLLVIKSSPSNYVRRELLRRTWGRERKVRGLQLRLLFLVGTASNPHEARKVNRLLELEAQTHGDILQWDFHDSFFNLTLKQVLFLQWQETRCANASFVLNGDDDVFAHTDNMVFYLQDHDPGRHLFVGQLIQNVGPIRAFWSKYYVPEVVTQNERYPPYCGGGGFLLSRFTAAALRRAAHVLDIFPIDDVFLGMCLELEGLKPASHSGIRTSGVRAPSQHLSSFDPCFYRDLLLVHRFLPYEMLLMWDALNQPNLTCGNQTQIY
modifications: Ig signal sequence and FLAG peptide
ratio of the substrate converted into the product ([2]; 15 μl eluate from culture supernatant of pAMoF2-G4-introduced Namalwa KJM-1 cell): 0.51%
ratio of the substrate converted into the product [2, 3]: 12.1%
ratio of the substrate converted into the product ([2]; insect cell product, resin before elution (enzyme adsorbed to Anti-FLAG M1 Affinity Gel)): 21.0%
